We go through two molecules from paper PMC3210322 (Nature structural & molecular biology, 2011).

For the experiment, the target named is Rpt2-L437C (S. cerevisiae, UniProt P40327 1-437, L437C). Put plainly: cross-linking.

Changes are numbered by the printed parent chain. Names and notes keep the numbering of the source.

Chain of Rpt2-L437C (P40327 whole entry L437C): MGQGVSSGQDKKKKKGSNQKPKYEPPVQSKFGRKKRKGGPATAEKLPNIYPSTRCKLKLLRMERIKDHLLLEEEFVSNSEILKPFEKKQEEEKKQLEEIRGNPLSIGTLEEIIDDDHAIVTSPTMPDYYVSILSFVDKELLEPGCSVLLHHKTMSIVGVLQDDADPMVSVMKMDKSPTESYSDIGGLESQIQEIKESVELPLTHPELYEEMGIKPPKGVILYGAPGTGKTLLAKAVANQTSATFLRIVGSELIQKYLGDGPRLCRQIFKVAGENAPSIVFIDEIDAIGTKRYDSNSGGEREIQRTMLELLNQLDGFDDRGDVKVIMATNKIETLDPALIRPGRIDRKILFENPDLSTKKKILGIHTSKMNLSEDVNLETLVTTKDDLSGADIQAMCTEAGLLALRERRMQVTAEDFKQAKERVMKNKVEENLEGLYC

B1: α4-N79C, not HA-tagged (natural protein)
chain: MSGYDRALSIFSPDGHIFQVEYALEAVKRGTCAVGVKGKNCVVLGCERRSTLKLQDTRITPSKVSKIDSHVVLSFSGLCADSRILIEKARVEAQSHRLTLEDPVTVEYLTRYVAGVQQRYTQSGGVRPFGVSTLIAGFDPRDDEPKLYQTEPSGIYSSWSAQTIGRNSKTVREFLEKNYDRKEPPATVEECVKLTVRSLLEVVQTGAKNIEITVVKPDSDIVALSSEEINQYVTQIEQEKQEQQEQDKKKKSNH
As for B1, the binding result is recorded as “binds”.

B2: α4-C32A C46A N79C (natural protein)
chain: B1 chain with C32A, C46A
As for B2, the binding result is recorded as “binds”.
